# Laboratory results reported in PMC8195445.
# What was measured:
# [1] = target: GST-calmodulin N-half (CaM-N, residues 1–74) (UniProt P0DP23); assay: pull-down
# [2] = target: GST-calmodulin C-half (CaM-C, residues 75–148) (UniProt P0DP23); assay: pull-down
percent of the binding of IQ3R to Ca2+-CaM-F [1] [%],percent of the binding of IQ3R to Ca2+-CaM-F [2] [%],percent of the binding to Ca2+-CaM-F [1] [%],Substance
27,15,,IQGAP1 IQ domain (amino acids 717–916) IQ3R mutant (from UniProt P46940 717-916) (domain or fragment)
,,32,IQGAP1 wild-type IQ domain (amino acids 717–916) (from UniProt P46940 717-916) (domain or fragment)
